According to the DeepSol protein solubility set:

Test: soluble on expression in E. coli; label from the status in PepcDB or PDB records

| Sequence | soluble on expression in E. coli |
| --- | --- |
| MQFLQNIPPYLFFTGKGGVGKTSISCATAIRLAEQGKRVLLVSTDPASNVGQVFSQTIGNTIQAIASVPGLSALEIDPQAAAQQYRARIVDPIKGVLPDDVVSSINEQLSGACTTEIAAFDEFTGLLTDASLLTRFDHIIFDTAPTGHTIRLLQLPGAWSSFIDSNPEGASCLGPMAGLEKQREQYAYAVEALSDPKRTRLVLVARLQKSTLQEVARTHLELAAIGLKNQYLVINGVLPKTEAANDTLAAAIWEREQEALANLPADLAGLPTDTLFLQPVNMVGVSALSRLLSTQPVASPSSDEYLQQRPDIPSLSALVDDIARNEHGLIMLMGKGGVGKTTMAAAIAVRLADMGFDVHLTTSDPAAHLSMTLNGSLNNLQVSRIDPHEETERYRQHVLETKGKELDEAGKRLLEEDLRSPCTEEIAVFQAFSRVIREAGKRFVVMDTAPTGHTLLLLDATGAYHREIAKKMGEKGHFTTPMMLLQDPERTKVLLVTLPETTPVLEAANLQADLERAGIHPWGWIINNSLSIADTRSPLLRMRAQQELPQIESVKRQHASRVALVPVLASEPTGIDKLKQLAGHHHHHH | soluble |
| MGSDKIHHHHHHMFFETTFHDATEQEASLPGWRQEYRQVSTGGYDGRTMAILLPGVEILRETISVGTEQMFSAPEGSMIFYYYPKRDRSELVRGEKATGVSGFALNWTNRIGFMDADSDLLMLVLRRDAVADEDRSRIAELVEPPLENAAFLADWLLSLLGGARQQSHPCAWGKFDGVLADVITDRFELLFQKSLVRQTPHIAQTEQIYRKIRDRIFDAPDMPHSVKSLSRDLGVSAFNLRASCQSFTQIPLDRILMMLRLNGARRDLLHARCSPRKVSDIAMDWGFFHWSRFALRYKSLFGETPSQTLKG | not soluble |
| MDSQLSNRLAQVAAYVPKGVKLLDVGSDHAYLPIFLVETNQISAAIAGEVVRGPYESALKNVTQSGLAEHIQVRLANGLAAFEEADDVTAITICGMGGRLIADILEAGKEKLQGIERLVLQPNNREDDLRAWLSVNAFKIVAETIMAENDKYYEIIVAEHGEKALSATELRFGPYLSQEKSVVFKEKWQREMDKLAYALSCIPEEKTQERQLLLTKIQQIKEVIVHES | not soluble |
| MMKEASEPLASVTSINKQDSKVQDGEIRKEKIGTITPSKQHSSVHFFPKIMDSDSTTLIPLSRSFSQEMPIGFYQITSTQNSSTLSSRGQLASKSTILSCSHKDSSLGKQSTSSMVPRRQPQSSSDVDTYTFGNGEDYFLSLFGESKKLTAHTPQAENVSEHLSVILEEVGQFTSSSLGEIKIAEVNIKGLFVRLVNSSNEKEVEIGNHILQQNVNGHAVSLYQFPDNITLQANSTVTVWAAASEAKPQPPTDFVWEEQSKFRSSPDCTTILCKPNGEAIAWYTPIHWKQAWEKLETDIEFERCSVVVPSMRNHMFGWITASVSSTNEEKEEPIQKTPSQVYPVLYREKEIPPTVLPNKSPWCRNPNTSPHPYSSLIDSHDSDISESSLDTQLKPQPTKPKPDPGTKKKKAKS | soluble |
| MSHHPDLSVSLDQLLLRKEVRVRQQGEWLKRHSLPLVSFTVNMPGAVKLNAASQTVMDAGMRAIQELCQKTGWRQVACQLLVEKTGPEAFVVIQAPSASMLKKAMMKIEREHPLGRLMDLDVIDVDGHIISRQGAQLPRRRCLLCERDAVICARSRRHSVEALLAKIEEMTHDYSCCA | soluble |
| MKKIVTATIATAGLATIAFAGHDAQAAEQNNNGYNSNDAQSYSYTYTIDAQGNYHYTWTGNWNPSQLTQNNTYYYNNYNTYSYNNASYNNYYNHSYQYNNYTNNSQTATNNYYTGGSGASYSTTSNNVHVTTTAAPSSNGRSISNGYASGSNLYTSGQCTYYVFDRVGGKIGSTWGNASNWANAAASSGYTVNNTPKVGAIMQTTQGYYGHVAYVEGVNSNGSVRVSEMNYGHGAGVVTSRTISANQAGSYNFIHLEHHHHHH | not soluble |
| MVKLENSRKPEKISNKNIPMSDFVVNLDHGDPTAYEEYWRKMGDRCTVTIRGCDLMSYFSDMTNLCWFLEPELEDAIKDLHGVVGNAATEDRYIVVGTGSTQLCQAAVHALSSLARSQPVSVVAAAPFYSTYVEETTYVRSGMYKWEGDAWGFDKKGPYIELVTSPNNPDGTIRETVVNRPDDDEAKVIHDFAYYWPHYTPITRRQDHDIMLFTFSKITGHAGSRIGWALVKDKEVAKKMVEYIIVNSIGVSKESQVRTAKILNVLKETCKSESESENFFKYGREMMKNRWEKLREVVKESDAFTLPKYPEAFCNYFGKSLESYPAFAWLGTKEETDLVSELRRHKVMSRAGERCGSDKKHVRVSMLSREDVFNVFLERLANMKLIKSIDL | soluble |
| MNHQETMTDYLMAFIEGLKNSGVEQAVISPGSRSTPLALLLHRETAIQTFVDVDERSAAFFALGLSKASQKPVVLLCTSGTAAANYYPAICEANISHVPLVVLTTDRPHELRQVGAPQAMDQLQMYQNHVKLFVEMALPEATEEMLNYAYWQGAKGAAFAQQTPAAPVHLNFPLREPLLPDLERKTKSSQQTALFAGQSILSTEQVQQLADQWYQKNGVLVVGGSHTEEEATLFIQLAEALQWPLLADPLANIVTHGQNSEVVIAHSDLFLNVATLPQEPEVVVRFGSLPISKNIMLWLKRLATTETAFYFVDENGQWQEQLKKSQTVIQAKETTFVEQLLTVVKPTEATWLAQWLLLEKTVSEVLLETLNATELNETTASLAVHQTMKENGQLFVSNSMAIRYLDRFMDSRPYRMFGNRGINGIDGIVSTALGMSAIAPTQQNVLLIGDLALYHDMNGLFLAKRYQLPLTIVLLNNNGGGIFSFLSQRTLREDDFEPLFGTPLDLDFSLVAELYGASYQEVKTIAELKQILQAAAEEPQFQVIEVKGNRQENVHLYESILAEIGRRVERQGISWNG | not soluble |
| AKDDKVTVLSIERGNKLVYLEKLGLRGDQFYYKIERIRESNGVVYIYHTSYIPEQYINANYPNLEYYSSIYNRFKLDYHIHMNDEHFEEINEIVFPTPEHAASVLGVDEQFPTVLQTKITKLESTGQVLEYSETYKRSDYYK | soluble |
| MSLSVKILALDTATERCSVALLVGNTVYSRSEIAPRDHTKKVLPMVDEVLKEAGVTLQELDALAFGRGPGSFTGVRIGIGIAQGLAFGADLPMIGISTLAAMAQAAYRLQGLTHVASAIDARMEEVYWGRYVRQEDGSWQVAEAECVIAPALLAQTLTQDDLTQDEQIWATAGTGWDAYPALADLPLQLQTSEVLYPDAQDMAYLAQFELAQGNKVSVEQASPVYLRDTVAWKKLPGREEGHHHHHH | soluble |
| MIKIKAIERKAGFGKTSKTLWYPAIHLHSDVKFEEFIELVSDETTVSSADIKAVFDRAAKVLIRLLQDGKSIDCGDMGTYRPSITAKAGSGVDSADKVTVELVDKAKVIYTPRMKVKTALKGVRMERAERVLDVPYASSIKPNENNSGGSSSSDNNGHAGL | not soluble |
| MVARISVGKNLYGALAYNQNKVDEGGAKVLSAHLLRYPEDGRFRPDESVRQFLEWMPNHYRTEKPVIHISLNPHPDDVLTDGQLAEIGREYMQRLGYGNQPYLVFKHEDIGRHHIHIVSLRVDSEGRKVSDKFEYRRSKEITELLEQKYGLHPAEGRKKGEEWQLKPVDVAKGDIKRQIACTLKPLLELYSFRTMGELRALLSLYNIGVEEVKGEIGGRTYHGILYTALDGNGETAATPIKSSRLGRTAGAQQLDRKMRESAARIKSAPCRERLRPLVADALRQSVDERDFRDRLAKEQIDLVLRRNGTDRIYGVTFIDHRSRTVLNGSRLGKEFSANMLNGHFQEQPPNSLSPLLPPVPSAVASGNGEKIPGGLLSDMEPELNYVPRYPKLLKPDKKKRRRRYGRQD | not soluble |
| RMEIVKIPVVVHVVWNEEEENISDAQIQSQIDILNKDFRKLNSDVSQVPSVWSNLIADLGIEFFLATKDPNGNQTTGITRTQTSVTFFTTSDEVKFASSGGEDAWPADRYLNIWVCHVLKSEIGQDILGYAQFPGGPAETDGVVIVDAAFGTTGTALPPFDKGRTATHEIGHWLNLYHIWGDELRFEDPCSRSDEVDDTPNQADPNFGCPSYPHVSCSNGPNGDMFMNYLDYVDDKCMVMFTQGQATRVNACLDGPRSSFLA | soluble |
| SDRAMMNAFKEITTMADRINLPRNIVDRTNNLFKQVYEQKSLKGRANDAIASACLYIACRQEGVPRTFKEICAVSRISKKEIGRCFKLILKALETSVDLITTGDFMSRFCSNLCLPKQVQMAATHIARKAVELDLVPGRSPISVAAAAIYMASQASAEKRTQKEIGDIAGVADVTIRQSYRLIYPRAPDLFPTDFKFDTPVDKLPQL | soluble |
